Measurements taken from PMC9018835, “Regulated interaction of ID2 with the anaphase-promoting complex links progression through mitosis with reactivation of cell-type-specific transcription” (Nature Communications, 2022).
Changes are numbered by the printed parent chain. Names may count otherwise. One block for each binder: values may come before it.

Columns and labels:
[1] = biological target: core APC (endogenous, HeLa) (human (endogenous in HeLa)); assay: cell-based or functional assay
[2] = biological target: T1, HA-CDH1, in vitro translated (UniProt Q9UM11 1-496); assay: pull-down; GST-ID2, with or without prior in vitro phosphorylation by CDK1-Cyclin B, incubated with APC immunopurified through FLAG-APC3 from HeLa cells and activated by in vitro translated HA-CDC20 or CDH1; western blot (Fig. 3h); conditions: both partners purified
T1 construct: CDH1/FZR1, generated by PCR and cloned into pcDNA3; also called in vitro translated CDH1; source: in vitro translated
T1 sequence (Q9UM11 whole entry): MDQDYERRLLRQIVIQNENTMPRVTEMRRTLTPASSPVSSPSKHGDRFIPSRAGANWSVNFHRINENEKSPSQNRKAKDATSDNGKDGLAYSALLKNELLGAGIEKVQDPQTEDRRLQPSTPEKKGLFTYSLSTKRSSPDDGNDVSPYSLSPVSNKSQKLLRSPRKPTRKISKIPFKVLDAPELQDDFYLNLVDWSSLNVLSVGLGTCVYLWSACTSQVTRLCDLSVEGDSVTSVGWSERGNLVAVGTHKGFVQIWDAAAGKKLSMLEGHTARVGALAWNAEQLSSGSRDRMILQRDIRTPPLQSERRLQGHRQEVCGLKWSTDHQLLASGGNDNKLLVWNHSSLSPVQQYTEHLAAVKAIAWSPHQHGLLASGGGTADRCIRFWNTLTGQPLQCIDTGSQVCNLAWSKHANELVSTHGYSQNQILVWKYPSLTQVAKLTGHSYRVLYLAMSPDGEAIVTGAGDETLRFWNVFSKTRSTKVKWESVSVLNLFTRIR

half-life of ID2-S5D in transiently transfected HeLa cells treated with cycloheximide, against ID2 wild type [1]: ~5 fold
B1: FLAG-ID2-S5D (natural protein, UniProt Q02363 1-134, looked up)
chain: MKAFDPVRSVRKNSLSDHSLGISRSKTPVDDPMSLLYNMNDCYSKLKELVPSIPQNKKVSKMEILQHVIDYILDLQIALDSHPTIVSLHHQRPGQNQASRTPLTTLNTDISILSLQASEFPSELMSNDSKALCG

binding result [2]: binds
B2: phospho-S5-GST-ID2 (natural protein, UniProt Q02363 1-134, looked up)
chain: B1 chain with D5S
modifications: phosphoserine at 5 (in vitro phosphorylation by Cyclin B-CDK1)
notes: also called CDK1 phosphorylated GST-ID2; source: E. coli BL21(DE3), GST fusion; phosphorylated in vitro by CDK1-Cyclin B

binding result [2]: binds
B3: GST-ID2 wild type (natural protein, UniProt Q02363 1-134, looked up)
chain: B1 chain with D5S
notes: also called GST-ID2 WT; recombinant GST-ID2; source: E. coli BL21(DE3), purified GST fusion, immobilised on glutathione sepharose 4B
